Test results as given in PMC6750980.

Target: Hepatitis C virus p7 protein from genotype 5a (EUH1480 strain) (Hepatitis C virus genotype 5a (EUH1480 strain))
Experiment: SEC

Substance “Hepatitis C virus p7 protein from genotype 5a (EUH1480 strain) (natural protein)” has a stoichiometry N of 6.
